Blank lines part the entries; values can stand above or below the molecule they belong to.
Key:
[1] = molecular target: human TSHR on transfected CHO cells (human, UniProt P16473 22-764); test: cell-based or functional assay
[2] = molecular target: TSH receptor (TSHR), full length human, coated on tubes (human) (UniProt P16473); test: inhibition of 125I-K1-18 IgG binding to TSHR coated tubes; competitor 125I-K1-18 IgG; sample at 0.1 µg/mL in HBD serum
[3] = molecular target: TSHR (full length) coated on tubes (human) (UniProt P16473); test: inhibition of 125I-K1-18 Fab (competitor) binding to TSHR coated tubes; test sample 0.1 µg/mL in assay buffer
[4] = molecular target: thyroid stimulating hormone receptor (TSHR), full length human TSHR (human) (UniProt P16473); test: TSH-biotin competition ELISA, TSHR coated wells; 0.1 µg/mL in HBD serum
[5] = molecular target: TSH receptor (full length human TSHR) (human) (UniProt P16473); test: competition ELISA: inhibition of M22 Fab-peroxidase (competitor) binding to TSHR coated wells; test sample at 10 µg/mL diluted in assay buffer
[6] = molecular target: human TSH receptor (full length) coated on ELISA plate wells (human) (UniProt P16473); test: TSH-biotin binding inhibition ELISA, TSHR coated wells; 10 µg/mL in assay buffer + 100 µg/mL 5B3 IgG; negative control MAb
[7] = molecular target: human TSH receptor (full length) coated on ELISA plate wells (human) (UniProt P16473); test: TSH-biotin binding inhibition ELISA, TSHR coated wells; 10 µg/mL in assay buffer; negative control MAb
[8] = molecular target: TSH receptor (TSHR), full length human, coated on tubes (human) (UniProt P16473); test: inhibition of 125I-TSH binding to TSHR coated tubes; 0.01 µg/mL, diluted in HBD serum pool; mean of duplicates
[9] = molecular target: TSH receptor (TSHR), full length human, coated on tubes (human) (UniProt P16473); test: inhibition of 125I-TSH binding to TSHR coated tubes; 0.01 µg/mL, diluted in assay buffer; mean of duplicates
[10] = molecular target: thyroid stimulating hormone receptor (TSHR), full length human TSHR (human) (UniProt P16473); test: TSH-biotin competition ELISA, TSHR coated wells; negative control, 100 µg/mL in HBD serum
[11] = molecular target: wild type TSHR (human TSH receptor) expressed in CHO cells (human) (UniProt P16473); test: cell-based or functional assay
[12] = molecular target: TSHR with Lys129 mutated to Ala, expressed in CHO cells (human) (UniProt P16473); test: cell-based or functional assay
[13] = molecular target: TSHR with Lys209 mutated to Ala (expressed in CHO cells) (human) (UniProt P16473); test: cell-based or functional assay
[14] = molecular target: TSHR with Arg255 mutated to Ala (human) (UniProt P16473); test: cell-based or functional assay
[15] = molecular target: TSHR with His105 mutated to Ala (expressed in CHO cells) (human) (UniProt P16473); test: cell-based or functional assay
[16] = molecular target: TSH receptor (TSHR), full length human, coated on tubes (human) (UniProt P16473); test: inhibition of 125I-K1-18 IgG (competitor) binding to TSHR coated tubes; test sample at 10 µg/mL in HBD serum pool
[17] = molecular target: human thyroid stimulating hormone receptor (TSHR), full length (human) (UniProt P16473); test: 125I-K1-18 Fab competition, TSHR coated tubes; 0.01 µg/mL in HBD
[18] = molecular target: thyroid stimulating hormone receptor (TSHR), full length, coated on tubes (human) (UniProt P16473); test: inhibition of 125I-TSH binding, TSHR coated tubes; antibody 1 µg/mL in HBD serum pool
[19] = molecular target: TSH receptor (TSHR), full length human, coated on tubes (human) (UniProt P16473); test: inhibition of 125I-K1-18 IgG (competitor) binding to TSHR coated tubes; test sample at 0.01 µg/mL in assay buffer
[20] = molecular target: human TSH receptor (full length) coated on ELISA plate wells (human) (UniProt P16473); test: TSH-biotin binding inhibition ELISA, TSHR coated wells; 0.1 µg/mL in assay buffer + 100 µg/mL 5B3 IgG
[21] = molecular target: TSH receptor (TSHR), full length human, coated on tubes (human) (UniProt P16473); test: inhibition of 125I-TSH binding to TSHR coated tubes; 0.001 µg/mL, diluted in HBD serum pool
[22] = molecular target: human TSH receptor (full length) coated on ELISA plate wells (human) (UniProt P16473); test: TSH-biotin binding inhibition ELISA, TSHR coated wells; 0.1 µg/mL in assay buffer
[23] = molecular target: thyroid stimulating hormone receptor (full length human TSHR) (human) (UniProt P16473); test: ELISA: inhibition of M22 Fab-peroxidase (competitor) binding to TSHR coated wells; 10 µg/mL, diluted in HBD serum pool
[24] = molecular target: human TSH receptor (full length) coated on ELISA plate wells (human) (UniProt P16473); test: TSH-biotin binding inhibition ELISA, TSHR coated wells; 10 µg/mL in assay buffer

TSHR constitutive (basal) cyclic AMP activity [1]: 2 x basal
Inhibition of binding (%) [2]: 33.8%
Inhibition of binding (%) [3]: 48.6%
Inhibition of binding (%) [4]: 39%
Inhibition of binding (%) [5]: 64.2%
Molecule: 9D33 IgG (antibody)

% inhibition of TSH-biotin binding [6]: -4.8%
% inhibition of TSH-biotin binding [7]: 0.9%
Inhibition of binding (%) [8]: 2.6%
Inhibition of binding (%) [9]: -5.8%
Inhibition of binding (%) [10]: -2.3%
Molecule: 5B3 IgG (antibody)

The remaining lines, values behind:

Molecule: TSH (ligand)
Cyclic AMP produced, wild type TSHR, TSH 0.01 ng/mL [11]: 2.01 pmol/mL
Cyclic AMP produced, wild type TSHR, TSH 0.03 ng/mL [11]: 3.32 pmol/mL
Cyclic AMP produced, wild type TSHR, TSH 0.1 ng/mL [11]: 9.69 pmol/mL
Cyclic AMP produced, wild type TSHR, TSH 0.3 ng/mL [11]: 26.1 pmol/mL
Cyclic AMP produced, wild type TSHR, TSH 1 ng/mL [11]: 46.3 pmol/mL
Cyclic AMP produced, wild type TSHR, TSH 3 ng/mL [11]: 48.1 pmol/mL
Cyclic AMP produced, mutated TSHR, TSH 0.01 ng/mL [12]: 2.69 pmol/mL
Cyclic AMP produced, mutated TSHR, TSH 0.03 ng/mL [12]: 5.34 pmol/mL
Cyclic AMP produced, mutated TSHR, TSH 0.1 ng/mL [12]: 12.7 pmol/mL
Cyclic AMP produced, mutated TSHR, TSH 0.3 ng/mL [12]: 29 pmol/mL
Cyclic AMP produced, mutated TSHR, TSH 1 ng/mL [12]: 40.8 pmol/mL
Cyclic AMP produced, mutated TSHR, TSH 3 ng/mL [12]: 48.5 pmol/mL
Mutated/Wild type (%) of cyclic AMP produced, TSH 0.01 ng/mL [12]: 134%
Mutated/Wild type (%) of cyclic AMP produced, TSH 0.03 ng/mL [12]: 161%
Mutated/Wild type (%) of cyclic AMP produced, TSH 0.1 ng/mL [12]: 131%
Mutated/Wild type (%) of cyclic AMP produced, TSH 0.3 ng/mL [12]: 111%
Mutated/Wild type (%) of cyclic AMP produced, TSH 1 ng/mL [12]: 88%
Mutated/wild type (%) of cyclic AMP produced; TSH 3 ng/mL [12]: 101%
Mutated/Wild type (%) of cyclic AMP produced, TSH 0.01 ng/mL [13]: 171%
Mutated/Wild type (%) of cyclic AMP produced, TSH 0.03 ng/mL [13]: 128%
Mutated/Wild type (%) of cyclic AMP produced, TSH 0.1 ng/mL [13]: 65%
Mutated/Wild type (%) of cyclic AMP produced, TSH 0.3 ng/mL [13]: 64%
Mutated/Wild type (%) of cyclic AMP produced, TSH 1 ng/mL [13]: 45%
Mutated/Wild type (%) of cyclic AMP produced, TSH 0.01 ng/mL [14]: 161%
Mutated/Wild type (%) of cyclic AMP produced, TSH 0.03 ng/mL [14]: 141%
Mutated/Wild type (%) of cyclic AMP produced, TSH 0.1 ng/mL [14]: 126%
Mutated/Wild type (%) of cyclic AMP produced, TSH 0.3 ng/mL [14]: 101%
Mutated/Wild type (%) of cyclic AMP produced, TSH 1 ng/mL [14]: 90%
Mutated/wild type (%) of cyclic AMP produced; TSH 3 ng/mL [14]: 91%
Cyclic AMP produced (pmol/mL), TSH 0.01 ng/mL [15]: 4.8 pmol/mL
Cyclic AMP produced (pmol/mL), TSH 0.03 ng/mL [15]: 3.55 pmol/mL
Cyclic AMP produced (pmol/mL), TSH 0.1 ng/mL [15]: 4.82 pmol/mL
Cyclic AMP produced (pmol/mL), TSH 0.3 ng/mL [15]: 11.9 pmol/mL
Cyclic AMP produced (pmol/mL), TSH 1 ng/mL [15]: 34.6 pmol/mL
Cyclic AMP produced (pmol/mL), TSH 3 ng/mL [15]: 58.3 pmol/mL
Mutated/Wild type (%), TSH 0.01 ng/mL [15]: 308%
Mutated/Wild type (%), TSH 0.03 ng/mL [15]: 147%
Mutated/Wild type (%), TSH 0.1 ng/mL [15]: 118%
Mutated/Wild type (%), TSH 0.3 ng/mL [15]: 104%
Mutated/Wild type (%), TSH 1 ng/mL [15]: 76%
Mutated/Wild type (%), TSH 3 ng/mL [15]: 75%

B1: 5C9 IgG (antibody, from another filing, V domains shown)
VH: EVQLVESGGGLIQPGGSLRLSCAASGFTVSSNYMSWVRQAPGKGLEWVSVTYSGGSTSYADSVKGRFTISRDNSKNTLYLQMNSLRAEDTAVYYCARGGRYCSSISCYARSGCDYWGQGTLVTVSS
VL: AIQMTQSPSSLSASVGDRVTITCRASQSISNYLNWYQQKPGKAPKLLIYAASSLQSGVPSRFSGSGSGTDFTLTISSLQPEDFATYYCQQSYSSPSTTFGQGTKLEIK
Inhibition of binding (%) [16]: 46.7%
Inhibition of binding (%) [17]: 5.7%
Inhibition of binding (%) [18]: 19.7%
Inhibition of binding (%) [19]: 11.7%
% inhibition of TSH-biotin binding [20]: 36.3%
Inhibition of binding (%) [21]: -8%
% inhibition of TSH-biotin binding [22]: 34.9%
Inhibition of binding (%) [23]: 13%
% inhibition of TSH-biotin binding [24]: 58.2%

Source: patent US20110300138A1 (published 2011)
